Measurements: patent US20160220669A1 (Hoffmann-La Roche, published 2016)

What was measured:
[1] = molecular target: human wildtype CSF-1R (full-length) (human, UniProt P07333 20-972); experiment: cell-based or functional assay
[2] = molecular target: CSF-1R of cynomolgous monocytes (cynomolgous); experiment: cell-based or functional assay

Binder | % inhibition 10 µg/ml antibody concentration (BeWo cells, CSF-1 induced growth) [1] [%] | % survival (cynomolgous monocytes with huCSF-1, 5 µg/ml antibody) [2] [%]
Mab 2F11 (antibody, V domains shown) VH: QVQLKESGPGLVAPSQSLSITCTVSGFSLTTYDISWIRQSPGKGLEWLGVIWTDGGTNYNSPFMSRLSIRKDNSKSQVFLKMNRLQTDDTAIYYCVRDQRLYFDVWGAGTTVTVSS VL: NIVMTQSPKSMSMSVGERVTLNCKASEDVNTYVSWYQQQPEQSPKLLIYGASNRYTGVPDRFTGGGSTTDFTLTISSVQAEDLADYFCGQSFSYPTFGTGTKLEIK | 70 | 4
Mab 1G10 (antibody, V domains shown) VH: RVQLKESGPGLVAPSQSLSITCTVSGFSLTSYDISWIRQSPGKGLEWLGVIWSGGGTNYNSPFMSRLRISKDDSRSQVFLKVNRLQTDDTAIYYCVRDLRLYFDVWGAGTTVTVSS VL: KIVMTQSPKSMSVSVGERVSLSCKASEDVGTYVSWYQQKPEQSPKLLIYGSSNRYTGVPDRFTGSGSATDFTLTISSVQAEDLADYSCGQSFTYPTFGTGTKLEIK | 99 | 2
Mab 2E10 (antibody, V domains shown) VH: QVQLKESGPGLVAPSKSLSITCTVSGSSLDSFDISWIRQSPGKGLEWLGVIWTGGGTNYNSGFMSRLRITKDNSKSQVLLKMNSLQSDDTAIYYCVRDPRLYFDVWGAGTTVTVSS VL: NIVMTQSPKSMSMSVGERVTLSCKASEDVVTYVSWYQQKPDQSPKLLIYGASNRYTGVPDRFTGSGSATDFTLTISSVQAEDLADYYCGQTFSYPTFGTGTKLEIK | 102 | 17
Mab 2H7 (antibody, V domains shown) VH: QVQLKESGPGLVAPSKSLSITCTVSGSSLDSFDISWIRQPPGKGLEWLGVIWTGGGTNYNSGFMSRLRISKDNSKSQVFLKMSSLQSDDTAIYYCVRDPRLYFDVWGAGTTVTVSS VL: NIVMTQSPKSMSMSVGERVTLSCKASEDVVTYVSWYQQKPEQSPKLLIYGASNRYTGVPDRFTGSGSATDFTLTISSIQAEDLADYYCGQTFSYPTFGTGTKLEIK | 103 | 8
